Assay results reported in the domain aggregation screens of Martell et al. (2025).

Assay: soluble fraction after stress (log2 fold change); higher = more stays soluble; pooled small domains, quantitative proteomics
Conditions: stress: pH 4
How it was run: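 After pH 4 stress, pooled custom libraries of small protein domains were quantified with high-throughput quantitative proteomics. Aggregation propensity is taken from the fold change in each domain's soluble amount following the acid stress. The scale is log2, where higher values mean more stayed soluble.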

Sequence	soluble fraction (log2)
HMDLQHQLTPRLKRLRLSGILETLEVRNQQAIAEKWSYVEFLTRLAEDEVERRDHKQLTLRLR	-0.564
HMTLDEFTDLMNLFKTGHIEQKPVILYGYNYWTSLKSWFEFNNMKFPEMYIDGIINTVDEFKILYNKIF	-0.77
HMNTPHLTPREREVLKGIVDGLINKEIAARMGVSVATVITHRNNLTEKLGTRSVSALTIFAVMHGIVR	-0.323
HMGGLENNLKQARNRVGLTQSELARQAGISRQAYSSLESGAANPSTEVALRLAQALSERVESLFYLPE	-0.169
HMAEPEALLAMAQRILGEEVAQSLFQGAAREQGKEGYLPDPTPAFLDALEARLSGSVGAATAHAMISQLVG	-0.473
HMLEKVLDNHIHKLRLQHKISQQELADAIGVSRKTISTVETGRFTPSVVIALKIAAHFSVSVEQVFTL	-0.187
HMNIQPAMLNAANGGVAWKERGISMSQIMKRNAHTAEGSQKLWDYAFENFFQKNIDAGNIRDDR	-0.237
HMQIDDSVELSAIVEKLLAANPEQVEQLKNGKTKVLGYFVGLAMKETQGRANPQKVNELIQTHL	-0.308
HMGTQIKSPMPGTILDVRVNVGDTVKEGDILMILEAMKMENEILAPVSGKVAAIQVSKGTAVNSGDLLAVL	-0.404
HMAGRKMMVMANNLSVRKSANSLSEKLADLSRGDTVEYISSTNGWNKVRYKGQIGYVSSYYLKDTGEEVE	0.216
HMRSFGTLRRLPSGRYQASYAGPDLRRHAAPTTFETKLDAEGWLRDEHRMIERDEWTAPAARSQLK	0.0606
HMATAEETTPLWARNRLSHAIFGPGSVTGEDERSFEVAFDNGDTLNFSKKSAHLYFTAMSSR	-0.808
HMLLSHTAQREGELLTFLRGELALSSGLVKRLKWQNAFFLDGAPVHTNARVKPGQEITVRIEE	-1.09
HMDYKAELDNIIRDHLDMEGPLLPVLHAVMARFSYIPKDAIPIIARKLNLSSAEVSGVISFYHDFKKEK	-0.165
HMRKLHFVMSEIYEDHPWIGSKLQDVFLPKDIRVVLVERDSKQFMPNGQTLFELGDRLTLSALHYDPA	-2.22
HMDTVIAEVTASILNLRRSAGTSSDIIGKLNKGEKVSIIGGSGNWKNVRTSGGITGWVYHEYLSTY	-0.183
HMNMEYQKAINHIVQMVKDGQLIVGSKIPSERDLSESLGIGRNSTREAISILRGMGLVESRHGSGNYIAKD	0.22
HMGTDIGADKAAQTALADAGLSSSQVTGLRTKQDWDDGQLRYEVEFRAGGVEYDYELAADGTILKADRDT	0.254
HMYPDNEQTLSKLAFEFFKKRNIPISQSNINQIVTKSLGDRENLYNELLKIENFSTSGKKLTDNVIKKLIN	0.176

Sequence	soluble fraction (log2)
HMLRKTTDLDAIRSVAKDVIDQNPKAVEDYVGGKESAIGFLLGQVMRATKGTADANTVRELLKEILDS	-0.234
HMKGPLKDLGPDPVTGKSILVKDGKFGTYVTDGETNATLRRGDIVELLTLERGMELLAEKRARATQ	-0.0516
HMVNLLVTPLEELEINFRTLRALRKYNIYQLEDLLRFIKYNGFDALRIVPGMGIKSTEQLYEKLKDKNI	-1.06
HMSSIDLTARSGRAALKHRLSLLGYEFSKIELETLYVRFIELADEKKLLHDEDLIELVKEKN	-0.655
HMENMRLILASNLRRIREERRLSLNKVSELTGVSKSMLGQIERGESNPTLQTVWKIANGLRVSLTDLTEVP	0.252
HMYGQEVKVLGLFGDRAFIKVDEKSAVIRIGQSHQNVQLKSISNQKAILLVDNKDIALGLGDSYQSA	-0.397
HMEIYIDGNKYVGELRNGKPNGRGTITYTGDGSKYVGEWKNGKRYGRGKMAYTNGTTKEGVWKDDEFLYAT	0.377
HMSDKPIFIDTAGIAALSAIGFSKYQATIIFNYIKKGGAIYTVKDLAKIYSIDQKTIDLTQSKIIFS	0.22
HMDNVLGKSGKVIFVNEEINSYGRAFIPGHGEWNIRTKSDQNIHINDGIKVIERDGITLVVEL	-1.3
HMPTPLTPREHEIANLIAQGLSNREIADELVISPATAARHVANILAKLGFSSRTQVASWATRHD	-0.237
HMSEVTYQETLRLLRRAIDVLPQQSRQIILLGLSGKNNNEVAEMLGISVNTVKTLKKGAYKSLRNSL	-0.281
HMDQQTKFKTALAALAASAETKDRKLTKADVKEFLEDMDLGEEQMKLVYAYLASKHIHVEGAE	-0.0463
HMTPDGNATVWSANGYGVRLRTGPGKGYAIIGVYSVGTTVKVLERGPAGGWDHIQVGSRVGYMMNEFLHYY	0.422
HMGYINLNVKVSPEWRDFWRSAYASVVAGYHQNKEHWNTIILDGSIPDKDIKRMIAESYDLVSD	-0.662
HMQRYFLEEAYQPSEKFELSAEAFHHIVHVMRMKPKDRVYLAFSDQQVIIAEITEITEEKVYLTEIEKEE	-1.63
HMSREEFLAGLEEALAGEVPASVIRENLNYYNSYISQEMAKGRTVDEIVDEIGEPRIVARTIIDSSEAAGE	-0.246
HMSMTLSVLDDVRGLSESRRKQLFHSFGSIKKLREQSKETLMSIPYLPEKVALELYDKLHEE	0.272
HMRIEDTMDYINKIKEKLKNNGGVITSKEFTRSNIPTIYLTRMVETGELIRIDRGIYINSSG	-0.462
HMPSLGGLLALLKRNRKPDAMEALDRLISKEDRPETAEALENIREKVRNMQMREAEGLLLALMEP	-0.281
